Literature values in publication PMC10830413.
Like-named read-outs stand apart in the source and are kept apart here.

What was measured:
LPHN3 [1] = target: LPHN3 (UniProt Q9HAR2)
LPHN3 [2] = target: LPHN3 (UniProt Q9HAR2); remark: listed apart in the source

Chain of UniProt Q9HAR2 (Q9HAR2 20-862): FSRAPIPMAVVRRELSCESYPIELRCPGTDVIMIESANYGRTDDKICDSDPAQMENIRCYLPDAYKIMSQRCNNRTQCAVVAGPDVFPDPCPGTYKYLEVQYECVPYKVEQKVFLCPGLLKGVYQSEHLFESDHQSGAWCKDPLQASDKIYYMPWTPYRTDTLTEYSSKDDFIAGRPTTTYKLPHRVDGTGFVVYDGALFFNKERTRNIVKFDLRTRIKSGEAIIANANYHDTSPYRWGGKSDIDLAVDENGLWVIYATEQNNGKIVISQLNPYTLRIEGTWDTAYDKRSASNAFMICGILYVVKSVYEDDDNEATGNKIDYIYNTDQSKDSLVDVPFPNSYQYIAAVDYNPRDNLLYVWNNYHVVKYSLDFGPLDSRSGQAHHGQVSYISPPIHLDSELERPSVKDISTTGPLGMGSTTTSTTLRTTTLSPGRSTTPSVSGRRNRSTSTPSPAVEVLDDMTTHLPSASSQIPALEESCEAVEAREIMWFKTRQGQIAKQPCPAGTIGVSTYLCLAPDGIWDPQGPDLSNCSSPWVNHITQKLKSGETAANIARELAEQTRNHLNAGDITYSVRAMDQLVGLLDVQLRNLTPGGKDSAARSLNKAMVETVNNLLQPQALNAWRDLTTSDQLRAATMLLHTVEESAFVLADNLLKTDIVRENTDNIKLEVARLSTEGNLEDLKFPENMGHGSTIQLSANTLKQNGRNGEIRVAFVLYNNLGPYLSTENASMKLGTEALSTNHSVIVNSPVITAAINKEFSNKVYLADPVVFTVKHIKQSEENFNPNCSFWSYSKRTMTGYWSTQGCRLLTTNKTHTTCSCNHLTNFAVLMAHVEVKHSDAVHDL

Row | Kd (LPHN3 [1]) [nM] | Kd (LPHN3 [2]) [nM] | Substance
1 | 15 | – | FLRT3 (from UniProt Q9NZU0)
2 | – | 500 | TENM2 (from UniProt Q9NT68)
